Test [1] addresses T1, hPSMA antigen (with an added HHHHHH sequence) (human, UniProt Q04609 44-750).
T1 construct: also called human PSMA (hPSMA)
Kind of test: in vitro screening of VHH from immunized llamas.

In the next test the target is T2, cynomolgus monkey PSMA (cynomolgus monkey, UniProt A0A2K5VNZ0 44-750).
T2 construct: also called cyPSMA; Cyno PSMA
Kind of test: Octet. In general terms: In BLI a coated tip is dipped into the sample, and binding shifts an interference pattern.

For test [2], the target named is T3, human PSMA (human, UniProt Q04609 44-750, limits assumed).
T3 construct: also called huPSMA
T3 sequence (Q04609 44-750 limits assumed): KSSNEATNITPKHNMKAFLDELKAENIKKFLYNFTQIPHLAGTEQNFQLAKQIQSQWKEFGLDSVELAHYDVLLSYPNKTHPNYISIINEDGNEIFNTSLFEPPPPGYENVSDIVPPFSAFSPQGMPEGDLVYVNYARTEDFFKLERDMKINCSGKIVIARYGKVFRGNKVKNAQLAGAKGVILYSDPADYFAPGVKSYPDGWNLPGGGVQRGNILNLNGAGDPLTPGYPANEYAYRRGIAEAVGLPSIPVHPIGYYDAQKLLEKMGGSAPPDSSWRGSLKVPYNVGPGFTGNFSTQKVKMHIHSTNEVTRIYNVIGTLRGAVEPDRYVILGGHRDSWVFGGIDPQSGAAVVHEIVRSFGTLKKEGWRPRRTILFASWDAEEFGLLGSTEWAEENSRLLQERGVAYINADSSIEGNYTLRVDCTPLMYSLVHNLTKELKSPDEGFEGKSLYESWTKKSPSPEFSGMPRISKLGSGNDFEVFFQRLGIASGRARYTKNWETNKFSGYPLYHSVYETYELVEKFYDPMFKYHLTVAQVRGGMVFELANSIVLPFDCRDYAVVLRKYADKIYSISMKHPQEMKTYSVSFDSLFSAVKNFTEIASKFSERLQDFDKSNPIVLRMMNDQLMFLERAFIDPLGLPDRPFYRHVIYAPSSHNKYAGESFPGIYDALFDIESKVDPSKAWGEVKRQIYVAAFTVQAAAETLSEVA
Kind of test: Octet.

Test [3] concerns the target T4, cynomolgus monkey CD3 epsilon (cynomolgus monkey, UniProt Q95LI5 22-117, limits assumed).
T4 construct: also called cyCD3e
T4 sequence (looked up): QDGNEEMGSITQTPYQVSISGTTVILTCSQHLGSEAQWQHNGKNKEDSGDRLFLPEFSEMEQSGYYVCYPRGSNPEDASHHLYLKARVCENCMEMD
Kind of test: Octet.

In the next test the target is T5, human CD3 epsilon (human, UniProt P07766 23-126, limits assumed).
T5 construct: also called huCD3e
T5 sequence (P07766 23-126 limits assumed): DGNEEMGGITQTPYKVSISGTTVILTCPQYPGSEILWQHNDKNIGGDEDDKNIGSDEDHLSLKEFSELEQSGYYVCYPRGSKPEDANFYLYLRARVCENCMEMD
In words: Octet.

In test [4] the target is T6, human PSMA-Fc (human, UniProt Q04609 44-750, limits assumed).
T6 construct: also called Human PSMA-Fc fusions; not shown: Fc part
T6 sequence (Q04609 44-750 limits assumed): as the sequence (Q04609 44-750 limits assumed) above
Kind of test: Octet.

The target of test [5] is T6, human PSMA-Fc. Kind of test: linker length / domain swap comparison.
Test [6] addresses T3, human PSMA. In words: BLI or SPR. An excerpt: The values are reported below in Table 19 for PSMA and Table 20 for CD3.
For a further test, the target named is T7, Cyno CD3 (cynomolgus monkey, UniProt Q95LI5 22-117).
T7 construct: also called cynomolgus monkey CD3; not shown: A CD3 delta partner cannot be excluded
T7 sequence: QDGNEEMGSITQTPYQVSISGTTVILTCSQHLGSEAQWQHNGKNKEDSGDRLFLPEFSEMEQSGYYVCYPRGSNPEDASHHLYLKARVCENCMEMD
Kind of test: BLI or SPR.

A further test concerns the target T8, Human CD3 (human, UniProt P07766 23-126).
T8 construct: not shown: A CD3 delta partner cannot be excluded
Kind of test: BLI or SPR.

Test [7] deals with T6, human PSMA-Fc. In words: Octet, human PSMA-Fc. The method, then: Binding affinity of select PSMA PTE variants was tested by Octet.

The Kd is the free concentration of one partner at which half of the binding sites on the other are occupied at equilibrium, for simple one-to-one binding. As a reminder, the koff is a measure of how fast the partners let go of each other. As a reminder, the kon is the rate constant with which the complex forms.

T1 sequence (Q04609 other isoform, or with tags, fused parts or gaps limits assumed): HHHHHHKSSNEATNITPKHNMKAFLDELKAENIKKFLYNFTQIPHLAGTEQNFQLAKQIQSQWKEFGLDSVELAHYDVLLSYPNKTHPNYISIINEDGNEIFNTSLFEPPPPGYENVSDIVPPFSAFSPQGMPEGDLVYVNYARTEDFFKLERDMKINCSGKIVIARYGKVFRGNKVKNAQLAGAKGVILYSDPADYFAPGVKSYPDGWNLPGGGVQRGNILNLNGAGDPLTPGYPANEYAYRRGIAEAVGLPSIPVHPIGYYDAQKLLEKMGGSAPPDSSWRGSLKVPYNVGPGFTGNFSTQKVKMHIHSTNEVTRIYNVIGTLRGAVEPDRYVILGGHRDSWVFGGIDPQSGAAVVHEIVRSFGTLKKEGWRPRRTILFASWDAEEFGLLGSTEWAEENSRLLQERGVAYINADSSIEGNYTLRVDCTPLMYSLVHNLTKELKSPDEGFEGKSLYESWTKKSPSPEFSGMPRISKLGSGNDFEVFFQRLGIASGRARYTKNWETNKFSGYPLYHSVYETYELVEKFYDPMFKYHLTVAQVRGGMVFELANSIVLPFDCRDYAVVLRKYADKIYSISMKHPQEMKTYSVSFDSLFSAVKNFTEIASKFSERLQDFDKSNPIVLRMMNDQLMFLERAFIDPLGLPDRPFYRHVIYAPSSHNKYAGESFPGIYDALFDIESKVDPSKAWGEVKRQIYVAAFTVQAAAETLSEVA
T8 sequence (P07766 23-126 limits assumed): as the sequence (P07766 23-126 limits assumed) above

B1: P01E02R3 (VHH)
VHH: EVQLVESGGGLVQAGGSLKLSCVANGPTFSTYAMAWFRQAPGKEHEFVAAITGDGDTTNNADSVKGRFTISRDNAKNRVYLQLNSLKPEDTAAYYCAAGVHHTYTIPRLWLYWGQGTQVTVSS
B1: the binding result in test [1] was “binds”.

B2: uTCE from AC3445 (bispecific antibody)
chain: LTGPGTSESATPESQVQLVESGGGVVQPGRSLRLSCAASGRTFGIYVMGWVRQAPGKEREFVAAISWSGSNRKVSDSVKGRFTISRDNSKNTLYLQMNSLRAEDTAVYYCAASNRLYGRTWYDFNESDYWGQGTQVTVSSGGGGSGGGSELVVTQEPSLTVSPGGTVTLTCRSSNGAVTSSNYANWVQQKPGQAPRGLIGGTNKRAPGTPARFSGSLLGGKAALTLSGVQPEDEAVYYCALWYPNLWVFGGGTKLTVLSESATPESGPGTSPGATPESGPGTSESATPEVQLLESGGGIVQPGGSLKLSCAASGFTFNTYAMNWVRQAPGKGLEWVARIRSKYNNYATYYADSVKDRFTISRDDSKNTVYLQMNNLKTEDTAVYYCVRHENFGNSYVSWFAHWGQGTLVTVSSGTATPESGPGEAGRSANHTPAG
notes: unmasked TCE released from this paTCE; also called PSMA.119-CD3.23 uTCE
As for B2, the Kd in the test with cynomolgus monkey PSMA worked out at 47.5 nM; in the test with human PSMA [2] it was 6.2 nM; in test [3], 40 nM; with human CD3 epsilon it was 34.8 nM.

B3: CB01B02R3 (VHH)
VHH: QVQLVESGGGLVQAGDSLRLSCVTSGRTFDVYAMGWFRQAPGKERELVAAINWSGSNKFHADSVKGRFTISRDNAWKTLSLQMNSLKPEDTAVYFCAASTRLYGTTWYEFNDSDYWGQGTQVTVSS
notes: also called PSMA.3
Regarding B3, in test [1], the binding result is given as “binds”.

B4: CB01A01R3 (VHH)
VHH: EVQLVESGGGLVQAGGSLRISCTASERSVSTYTKGWFRQAPGKERHLVAAISYNGDTTYYSDSVKGRFTISRDNVKNTVNLQMNSLKPEDTAVYFCAARGSSWLYGTWDDYHYWGQGTQVTVSS
On to B4, for which the binding result in test [1] is “binds”.

B5: uTCE of AC3356 (bispecific antibody)
chain: LTGPATSGSETPGTQVQLVESGGGVVQPGRSLRLSCAASGRTFGIYVMGWVRQAPGKEREFVAAISWSGSNRLVSDSVKGRFTISRDNSKNTLYLQMNSLRAEDTAVYYCAASNRLYGRTWYDFNESDYWGQGTQVTVSSGGGGSGGGSEVQLLESGGGIVQPGGSLKLSCAASGFTFNTYAMNWVRQAPGKGLEWVARIRSKYNNYATYYADSVKDRFTISRDDSKNTVYLQMNNLKTEDTAVYYCVRHENFGNSYVSWFAHWGQGTLVTVSSGATPPETGAETESPGETTGGSAESEPPGEGELVVTQEPSLTVSPGGTVTLTCRSSNGAVTSSNYANWVQQKPGQAPRGLIGGTNKRAPGTPARFSGSLLGGKAALTLSGVQPEDEAVYYCALWYPNLWVFGGGTKLTVLGTAEAASASGEAGRSANHTPAG
notes: unmasked TCE of this paTCE; CD3.23 in VH-VL order; also called PSMA.5 (domain swap)
B5 registered a Kd with human PSMA-Fc [4] of 2.4 nM. In the test with human PSMA-Fc [5], this molecule returned a Kd of 2.4 nM, a koff of 0.00018 s⁻¹ and a kon of 76000 M⁻¹ s⁻¹.

B6: AMX-500(1x-C) (bispecific antibody)
chain: ASSATPESGPGTSTEPSEGSAPGTSESATPESGPGSGPGTSESATPGTSESATPESGPGSEPATSGSETPGTSESATPESGPGTSTEPSEGSAPGSPAGSPTSTEEGTSESATPESGPGSEPATSGSETPGTSESATPESGPGSPAGSPTSTEEGSPAGSPTSTEEGTSTEPSEGSAPGTSESATPESGPGTSESATPESGPGTSESATPESGPGSEPATSGSETPGSEPATSGSETPGSPAGSPTSTEEGTSTEPSEGSAPGTSTEPSEGSAPGSEPATSGSETPGTSESATPEAGRSASHTPAGLTGPGTSESATPESQVQLVESGGGVVQPGRSLRLSCAASGRTFGIYVWGWFRQAPGKEREFVGAMSWSGSNRKVSDSVKGRFTISRDNSKNTLYLQMNSLRAEDTAVYYCAASNKEYGRTWYDFNESDYWGQGTQVTVSSGGGGSGGGSELVVTQEPSLTVSPGGTVTLTCRSSNGAVTSSNYANWVQQKPGQAPRGLIGGTNKRAPGTPARFSGSLLGGKAALTLSGVQPEDEAVYYCALWYPNLWVFGGGTKLTVLSESATPESGPGTSPGATPESGPGTSESATPEVQLVESGGGIVQPGGSLRLSCAASGFTFSTYAMNWVRQAPGKGLEWVGRIRTKRNNYATYYADSVKGRFTISRDDSKNTVYLQMNSLKTEDTAVYYCVRHENFGNSYVSWFAHWGQGTLVTVSSGTATPESGPGEAGRSASHTPAGLTGPATPESGPGTSESATPESGPGSPAGSPTSTEEGTSESATPESGPGSEPATSGSETPGTSESATPESGPGTSTEPSEGSAPGTSTEPSEGSAPGTSTEPSEGSAPGTSTEPSEGSAPGTSTEPSEGSAPGTSTEPSEGSAPGSPAGSPTSTEEGTSTEPSEGSAPGTSESATPESGPGSEPATSGSETPGTSESATPESGPGSEPATSGSETPGTSESATPESGPGTSTEPSEGSAPGTSESATPESGPGSPAGSPTSTEEGSPAGSPTSTEEGSPAGSPTSTEEGTSESATPESGPGTSTEPSEGSAPGTSESATPESGPGSEPATSGSETPGTSESATPESGPGSEPATSGSETPGTSESATPESGPGTSTEPSEGSAPGSPAGSPTSTEEGTSESATPESGPGSEPATSGSETPGTSESATPESGPGSPAGSPTSTEEGSPAGSPTSTEEGTSTEPSEGSAPGTSESATPESGPGTSESATPESGPGTSPSATPESGPGSEPATSGSETPGSEPATSGSETPGSPAGSPTSTEEGTSTEPSEGSAPGTSTEPSEGSAPGSEPATSGSETPGTSESAGEPEA
Consider B6, for which the values for the Kd with human PSMA [6], with Cyno CD3 and in the test with Human CD3 were 353 nM, 26.7 nM and 34.4 nM, respectively.

B7: CB01H01R3 (VHH)
VHH: EVQLVESGGGSVQAGGSLSLSCVASGRTFGIYVMGWFRQAPGKEREFVAAISWSGSNRLVSDSVKGRFTISRENAKNTIYLQMNGLKPEDTANYFCAASNRLYGRTWYDFNESDYWGQGTQVTVSS
notes: also called PSMA.2
With B7, the binding result in [1] was “binds”.

B8: P01G03R3 (VHH)
VHH: EVQLVESGGGLVQAGGSLRLSCVVSGIAFSPYHMAWYRQAPGKQHEWVAVITTGGTTAYNETVEGRFSISRDNARSTVYLQMNSLKPEDTAVYYCNIYGLSLKWGQGTQVTVSS
With B8, the binding result in test [1] is on record as “binds”.

B9: uTCE of AC3353 (bispecific antibody)
chain: LTGPATSGSETPGTQVQLVESGGGVVQPGRSLRLSCAASGRTFGIYVMGWVRQAPGKEREFVAAISWSGSNRLVSDSVKGRFTISRDNSKNTLYLQMNSLRAEDTAVYYCAASNRLYGRTWYDFNESDYWGQGTQVTVSSGGGGSELVVTQEPSLTVSPGGTVTLTCRSSNGAVTSSNYANWVQQKPGQAPRGLIGGTNKRAPGTPARFSGSLLGGKAALTLSGVQPEDEAVYYCALWYPNLWVFGGGTKLTVLGATPPETGAETESPGETTGGSAESEPPGEGEVQLLESGGGIVQPGGSLKLSCAASGFTFNTYAMNWVRQAPGKGLEWVARIRSKYNNYATYYADSVKDRFTISRDDSKNTVYLQMNNLKTEDTAVYYCVRHENFGNSYVSWFAHWGQGTLVTVSSGTAEAASASGEAGRSANHTPAG
notes: unmasked TCE of this paTCE; 5-residue VHH-scFv linker; also called PSMA.5 (5 mer)
As to B9, the Kd in the test with human PSMA-Fc [4] was determined as 2.1 nM. In the test with human PSMA-Fc [5], this molecule gave a Kd of 2.1 nM, a koff of 0.00022 s⁻¹ and a kon of 110000 M⁻¹ s⁻¹.

B10: uTCE of AC3342 (bispecific antibody, V domains shown)
VH: QVQLVESGGGVVQPGRSLRLSCAASGRTFGIYVMGWVRQAPGKEREFVAAISWSGSNRLVSDSVKGRFTISRDNSKNTLYLQMNSLRAEDTAVYYCAASNKLYGRTWYDFNESDYWGQGTQVTVSS
notes: VHH in uTCE with CD3.23 scFv (VL-VH), 9-residue linker; also called PSMA.132; R101K
B10 had a Kd with human PSMA-Fc [4] of 5.6 nM. In the test with human PSMA-Fc [7], binding was characterised by a dissociation constant (Kd) of 5.6 nM, the koff was 0.000479 s⁻¹ and the on-rate constant (kon) was 86600 M⁻¹ s⁻¹.

B11: P01C01R3 (VHH)
VHH: QVQLVESGGGLVQAGGSLRLSCAASGRTVNSYAMGWFRQAPGKEREFVASQSWMGAITYDADYADSVKGRFTISRDNAKNTLYLQMNSLKPEDTAVYRCAASRQARPGLHVREYDVWGQGTQVTVSS
With B11, the binding result in [1] is given as “binds”.

B12: uTCE of AC3354 (bispecific antibody)
chain: LTGPATSGSETPGTQVQLVESGGGVVQPGRSLRLSCAASGRTFGIYVMGWVRQAPGKEREFVAAISWSGSNRLVSDSVKGRFTISRDNSKNTLYLQMNSLRAEDTAVYYCAASNRLYGRTWYDFNESDYWGQGTQVTVSSGATPPETGAETESPGELVVTQEPSLTVSPGGTVTLTCRSSNGAVTSSNYANWVQQKPGQAPRGLIGGTNKRAPGTPARFSGSLLGGKAALTLSGVQPEDEAVYYCALWYPNLWVFGGGTKLTVLGATPPETGAETESPGETTGGSAESEPPGEGEVQLLESGGGIVQPGGSLKLSCAASGFTFNTYAMNWVRQAPGKGLEWVARIRSKYNNYATYYADSVKDRFTISRDDSKNTVYLQMNNLKTEDTAVYYCVRHENFGNSYVSWFAHWGQGTLVTVSSGTAEAASASGEAGRSANHTPAG
notes: unmasked TCE of this paTCE; 15-residue VHH-scFv linker; also called PSMA.5 (15 mer)
With B12, the Kd with human PSMA-Fc [4] is 3.5 nM. In the test with human PSMA-Fc [5], this molecule displayed a Kd of 3.5 nM, a koff of 0.00027 s⁻¹ and a kon of 77000 M⁻¹ s⁻¹.

Values taken from patent publication US20240327538A1 (AMUNIX PHARMACEUTICALS, published 2024).
